Target: T1, EsCas13d, nuclease-dead (Eubacterium siraeum, UniProt B0MS50, R295A;H300A;R849A;H854A)
T1 sequence: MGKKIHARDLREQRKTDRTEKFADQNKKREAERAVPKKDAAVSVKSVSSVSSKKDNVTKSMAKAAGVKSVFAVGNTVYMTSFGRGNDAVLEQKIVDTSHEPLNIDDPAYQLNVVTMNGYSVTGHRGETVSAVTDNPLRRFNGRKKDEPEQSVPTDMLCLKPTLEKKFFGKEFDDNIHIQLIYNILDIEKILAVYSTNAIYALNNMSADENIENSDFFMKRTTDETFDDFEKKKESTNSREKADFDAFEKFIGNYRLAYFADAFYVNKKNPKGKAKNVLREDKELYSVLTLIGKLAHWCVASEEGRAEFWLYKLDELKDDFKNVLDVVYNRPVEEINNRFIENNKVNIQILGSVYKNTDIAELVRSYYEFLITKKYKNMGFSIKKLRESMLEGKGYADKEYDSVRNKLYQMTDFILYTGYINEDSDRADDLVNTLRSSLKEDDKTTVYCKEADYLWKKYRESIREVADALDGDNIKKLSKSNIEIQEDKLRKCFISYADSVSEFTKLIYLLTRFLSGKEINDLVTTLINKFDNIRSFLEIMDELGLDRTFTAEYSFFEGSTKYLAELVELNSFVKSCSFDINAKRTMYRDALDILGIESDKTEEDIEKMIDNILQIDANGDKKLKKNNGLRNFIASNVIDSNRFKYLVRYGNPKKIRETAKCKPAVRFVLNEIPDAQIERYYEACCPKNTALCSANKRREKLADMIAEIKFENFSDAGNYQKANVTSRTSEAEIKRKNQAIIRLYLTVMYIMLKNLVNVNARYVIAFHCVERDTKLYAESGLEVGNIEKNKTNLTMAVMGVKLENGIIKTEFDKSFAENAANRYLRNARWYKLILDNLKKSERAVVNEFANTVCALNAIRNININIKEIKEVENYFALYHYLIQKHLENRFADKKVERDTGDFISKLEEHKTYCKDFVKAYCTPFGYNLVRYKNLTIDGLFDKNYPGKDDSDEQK
Assay: crRNA (strand 1, pre-loaded); Mg2+; 40 mM Tris-HCl pH 7.5, 150 mM NaCl, 6 mM MgCl2, 1 mM DTT, 0.1% Tween-20, 0.2 mg/ml BSA; 25 C; 10 min per concentration, then washed
Conditions: tags: His6-TwinStrep-SUMO cleaved; N-terminal SNAP kept (SNAP-Surface 488); label: 3' end held by stalled T7 RNA polymerase

B1: target 1 MT 5'PFS GCG 3'PFS UAA (mixed)
RNA 1: CACCCGUGCAAAAAUGCAGGGGUCUAAAACUGAGCGGAUAACCUCUCUAUGG
RNA 2: GGGAAUGGAUCCACAUCUACGAAUUCGCGCCAUAGAGAGGUUAUCCGCUCAUAAAGAUCGGAAGAGCACACGU
B1 gave a Kd of 10.6 ± 1.6 nM.

B2: target 1 MT 5'PFS GGC 3'PFS CGU (mixed)
RNA 1: CACCCGUGCAAAAAUGCAGGGGUCUAAAACUGAGCGGAUAACCUCUCUAUGG
RNA 2: GGGAAUGGAUCCACAUCUACGAAUUCGGCCCAUAGAGAGGUUAUCCGCUCACGUAGAUCGGAAGAGCACACGU
B2 showed a Kd of 10.7 ± 1.75 nM.

B3: target 1 MT 5'PFS GAA 3'PFS AGG (mixed)
RNA 1: CACCCGUGCAAAAAUGCAGGGGUCUAAAACUGAGCGGAUAACCUCUCUAUGG
RNA 2: GGGAAUGGAUCCACAUCUACGAAUUCGAACCAUAGAGAGGUUAUCCGCUCAAGGAGAUCGGAAGAGCACACGU
B3 gave a Kd of 81 ± 34 nM.

B4: target 1 insU 3' of 12,insA 3' of 7 (mixed)
RNA 1: CACCCGUGCAAAAAUGCAGGGGUCUAAAACUGAGCGGAUAACCUCUCUAUGG
RNA 2: GGGAAUGGAUCCACAUCUACGAAUUCGUACCAUAGAGAGGUUUAUCACGCUCACCGAGAUCGGAAGAGCACACGU
B4 showed a Kd of 5.36 ± 0.2 nM.

B5: target 1 MT 5'PFS GUU 3'PFS CCA (mixed)
RNA 1: CACCCGUGCAAAAAUGCAGGGGUCUAAAACUGAGCGGAUAACCUCUCUAUGG
RNA 2: GGGAAUGGAUCCACAUCUACGAAUUCGUUCCAUAGAGAGGUUAUCCGCUCACCAAGAUCGGAAGAGCACACGU
With B5 the Kd was 34 ± 8 nM.

B6: target 1 MT 5'PFS GUU 3'PFS CCC (mixed)
RNA 1: CACCCGUGCAAAAAUGCAGGGGUCUAAAACUGAGCGGAUAACCUCUCUAUGG
RNA 2: GGGAAUGGAUCCACAUCUACGAAUUCGUUCCAUAGAGAGGUUAUCCGCUCACCCAGAUCGGAAGAGCACACGU
B6 gave a Kd of 26.5 ± 8.5 nM.

B7: target 1 MT 5'PFS AAU 3'PFS ACA (mixed)
RNA 1: CACCCGUGCAAAAAUGCAGGGGUCUAAAACUGAGCGGAUAACCUCUCUAUGG
RNA 2: GGGAAUGGAUCCACAUCUACGAAUUCAAUCCAUAGAGAGGUUAUCCGCUCAACAAGAUCGGAAGAGCACACGU
Binder B7 has a Kd of roughly 32 nM.

B8: target 1 MT 5'PFS GAC 3'PFS CUU (mixed)
RNA 1: CACCCGUGCAAAAAUGCAGGGGUCUAAAACUGAGCGGAUAACCUCUCUAUGG
RNA 2: GGGAAUGGAUCCACAUCUACGAAUUCGACCCAUAGAGAGGUUAUCCGCUCACUUAGAUCGGAAGAGCACACGU
Work on B8 yielded a Kd of 12.1 ± 3.65 nM.

B9: target 1 MT 5'PFS GCG 3'PFS UAG (mixed)
RNA 1: CACCCGUGCAAAAAUGCAGGGGUCUAAAACUGAGCGGAUAACCUCUCUAUGG
RNA 2: GGGAAUGGAUCCACAUCUACGAAUUCGCGCCAUAGAGAGGUUAUCCGCUCAUAGAGAUCGGAAGAGCACACGU
With B9 the Kd was 17.5 ± 4 nM.

B10: target 1 MT 5'PFS AAU 3'PFS ACG (mixed)
RNA 1: CACCCGUGCAAAAAUGCAGGGGUCUAAAACUGAGCGGAUAACCUCUCUAUGG
RNA 2: GGGAAUGGAUCCACAUCUACGAAUUCAAUCCAUAGAGAGGUUAUCCGCUCAACGAGAUCGGAAGAGCACACGU
For B10, the Kd was 47 ± 13 nM.

B11: target 1 MT 5'PFS ACG 3'PFS UGA (mixed)
RNA 1: CACCCGUGCAAAAAUGCAGGGGUCUAAAACUGAGCGGAUAACCUCUCUAUGG
RNA 2: GGGAAUGGAUCCACAUCUACGAAUUCACGCCAUAGAGAGGUUAUCCGCUCAUGAAGAUCGGAAGAGCACACGU
For B11, the Kd was 20.5 ± 7.5 nM.

B12: target 1 MT 5'PFS GAC 3'PFS CUC (mixed)
RNA 1: CACCCGUGCAAAAAUGCAGGGGUCUAAAACUGAGCGGAUAACCUCUCUAUGG
RNA 2: GGGAAUGGAUCCACAUCUACGAAUUCGACCCAUAGAGAGGUUAUCCGCUCACUCAGAUCGGAAGAGCACACGU
In the case of B12, the Kd is reported as 24 ± 10 nM.

B13: target 1 C7G,C21A (mixed)
RNA 1: CACCCGUGCAAAAAUGCAGGGGUCUAAAACUGAGCGGAUAACCUCUCUAUGG
RNA 2: GGGAAUGGAUCCACAUCUACGAAUUCGUACAAUAGAGAGGUUAUGCGCUCACCGAGAUCGGAAGAGCACACGU
B13 showed a Kd of 30 ± 2.3 nM.

B14: target 1 MT 5'PFS UAA 3'PFS CGG (mixed)
RNA 1: CACCCGUGCAAAAAUGCAGGGGUCUAAAACUGAGCGGAUAACCUCUCUAUGG
RNA 2: GGGAAUGGAUCCACAUCUACGAAUUCUAACCAUAGAGAGGUUAUCCGCUCACGGAGAUCGGAAGAGCACACGU
For B14, the Kd was 55.5 ± 17 nM.

B15: target 1 MT 5'PFS GUA 3'PFS CUU (mixed)
RNA 1: CACCCGUGCAAAAAUGCAGGGGUCUAAAACUGAGCGGAUAACCUCUCUAUGG
RNA 2: GGGAAUGGAUCCACAUCUACGAAUUCGUACCAUAGAGAGGUUAUCCGCUCACUUAGAUCGGAAGAGCACACGU
With B15 the Kd was 8.52 ± 0.595 nM.

B16: target 1 MT 5'PFS ACG 3'PFS UGU (mixed)
RNA 1: CACCCGUGCAAAAAUGCAGGGGUCUAAAACUGAGCGGAUAACCUCUCUAUGG
RNA 2: GGGAAUGGAUCCACAUCUACGAAUUCACGCCAUAGAGAGGUUAUCCGCUCAUGUAGAUCGGAAGAGCACACGU
B16 showed a Kd of roughly 74.5 nM.

B17: target 1 MT 5'PFS GAC 3'PFS CUA (mixed)
RNA 1: CACCCGUGCAAAAAUGCAGGGGUCUAAAACUGAGCGGAUAACCUCUCUAUGG
RNA 2: GGGAAUGGAUCCACAUCUACGAAUUCGACCCAUAGAGAGGUUAUCCGCUCACUAAGAUCGGAAGAGCACACGU
With B17 the Kd was 15.5 ± 5 nM.

B18: target 1 MT 5'PFS UAA 3'PFS CGA (mixed)
RNA 1: CACCCGUGCAAAAAUGCAGGGGUCUAAAACUGAGCGGAUAACCUCUCUAUGG
RNA 2: GGGAAUGGAUCCACAUCUACGAAUUCUAACCAUAGAGAGGUUAUCCGCUCACGAAGAUCGGAAGAGCACACGU
Work on B18 yielded a Kd of 50 ± 23 nM.

B19: target 1 MT 5'PFS GGC 3'PFS CGG (mixed)
RNA 1: CACCCGUGCAAAAAUGCAGGGGUCUAAAACUGAGCGGAUAACCUCUCUAUGG
RNA 2: GGGAAUGGAUCCACAUCUACGAAUUCGGCCCAUAGAGAGGUUAUCCGCUCACGGAGAUCGGAAGAGCACACGU
Work on B19 yielded a Kd of 27.5 ± 5.5 nM.

B20: target 1 MT 5'PFS GAC 3'PFS CUG (mixed)
RNA 1: CACCCGUGCAAAAAUGCAGGGGUCUAAAACUGAGCGGAUAACCUCUCUAUGG
RNA 2: GGGAAUGGAUCCACAUCUACGAAUUCGACCCAUAGAGAGGUUAUCCGCUCACUGAGAUCGGAAGAGCACACGU
Binder B20 has a Kd of 19 ± 6.5 nM.

B21: target 1 MT 5'PFS GUU 3'PFS CCG (mixed)
RNA 1: CACCCGUGCAAAAAUGCAGGGGUCUAAAACUGAGCGGAUAACCUCUCUAUGG
RNA 2: GGGAAUGGAUCCACAUCUACGAAUUCGUUCCAUAGAGAGGUUAUCCGCUCACCGAGAUCGGAAGAGCACACGU
For B21, the Kd was 11.2 ± 1.55 nM.

B22: target 1 MT 5'PFS CCG 3'PFS AUU (mixed)
RNA 1: CACCCGUGCAAAAAUGCAGGGGUCUAAAACUGAGCGGAUAACCUCUCUAUGG
RNA 2: GGGAAUGGAUCCACAUCUACGAAUUCCCGCCAUAGAGAGGUUAUCCGCUCAAUUAGAUCGGAAGAGCACACGU
B22 was tested, and the Kd was 3.75 ± 1.75 nM.

B23: target 1 MT 5'PFS GUA 3'PFS CUA (mixed)
RNA 1: CACCCGUGCAAAAAUGCAGGGGUCUAAAACUGAGCGGAUAACCUCUCUAUGG
RNA 2: GGGAAUGGAUCCACAUCUACGAAUUCGUACCAUAGAGAGGUUAUCCGCUCACUAAGAUCGGAAGAGCACACGU
Work on B23 yielded a Kd of 10.2 ± 0.7 nM.

B24: target 1 MT 5'PFS GCG 3'PFS UAU (mixed)
RNA 1: CACCCGUGCAAAAAUGCAGGGGUCUAAAACUGAGCGGAUAACCUCUCUAUGG
RNA 2: GGGAAUGGAUCCACAUCUACGAAUUCGCGCCAUAGAGAGGUUAUCCGCUCAUAUAGAUCGGAAGAGCACACGU
B24 gave a Kd of 12.2 ± 2.95 nM.

B25: target 1 MT 5'PFS GUA 3'PFS CUC (mixed)
RNA 1: CACCCGUGCAAAAAUGCAGGGGUCUAAAACUGAGCGGAUAACCUCUCUAUGG
RNA 2: GGGAAUGGAUCCACAUCUACGAAUUCGUACCAUAGAGAGGUUAUCCGCUCACUCAGAUCGGAAGAGCACACGU
B25 showed a Kd of 13.8 ± 1.15 nM.

B26: target 1 MT 5'PFS UGG 3'PFS UAA (mixed)
RNA 1: CACCCGUGCAAAAAUGCAGGGGUCUAAAACUGAGCGGAUAACCUCUCUAUGG
RNA 2: GGGAAUGGAUCCACAUCUACGAAUUCUGGCCAUAGAGAGGUUAUCCGCUCAUAAAGAUCGGAAGAGCACACGU
B26 was tested, and the Kd was 79.5 ± 27.5 nM.

B27: target 1 MT 5'PFS GUA 3'PFS CUG (mixed)
RNA 1: CACCCGUGCAAAAAUGCAGGGGUCUAAAACUGAGCGGAUAACCUCUCUAUGG
RNA 2: GGGAAUGGAUCCACAUCUACGAAUUCGUACCAUAGAGAGGUUAUCCGCUCACUGAGAUCGGAAGAGCACACGU
B27 gave a Kd of 7.89 ± 0.47 nM.

B28: target 1 MT 5'PFS GUU 3'PFS CCU (mixed)
RNA 1: CACCCGUGCAAAAAUGCAGGGGUCUAAAACUGAGCGGAUAACCUCUCUAUGG
RNA 2: GGGAAUGGAUCCACAUCUACGAAUUCGUUCCAUAGAGAGGUUAUCCGCUCACCUAGAUCGGAAGAGCACACGU
In the case of B28, the Kd is reported as 11.6 ± 1.9 nM.

— paper PMC10786891, “Massively parallel profiling of RNA-targeting CRISPR-Cas13d”
